Results from patent US20260116991A1 (HAINAN SIMCERE ZAIMING PHARMACEUTICAL, published 2026).

Assays:
[1] = molecular target: T1, human GPC3 on CHO-K1-human GPC3 cells (CHOK1-hGPC3.2B5) (human, UniProt P51654 25-554); test: FACS, CHOK1-hGPC3.2B5 cells;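 also: flow cytometry of humanized antibodies binding to the cells over one hour in the cold, read as cell mean fluorescence intensity, with EC50 obtained by curve fitting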
T1 construct: whole, on cells

[2] = molecular target: biotinylated labeled human GPC3 protein (produced in-house) (human, UniProt P51654 25-559, limits assumed, biotinylated (Dojindo, Cat. No. LK03); sites not stated); test: ELISA, biotinylated human GPC3 protein

| Binder | EC50 [1] [nM] | Max MFI [1] [MFI] | OD450 at 0.0008 nM [2] [OD450] | OD450 at 0.004 nM [2] [OD450] | OD450 at 0.02 nM [2] [OD450] | OD450 at 0.11 nM [2] [OD450] | OD450 at 0.53 nM [2] [OD450] | OD450 at 2.67 nM [2] [OD450] | OD450 at 13.33 nM [2] [OD450] | OD450 at 66.66 nM [2] [OD450] | OD450 at 0.0004 nM [2] [OD450] | OD450 at 0.002 nM [2] [OD450] | OD450 at 0.011 nM [2] [OD450] | OD450 at 0.056 nM [2] [OD450] | OD450 at 0.28 nM [2] [OD450] | OD450 at 1.39 nM [2] [OD450] | OD450 at 6.94 nM [2] [OD450] | OD450 at 34.72 nM [2] [OD450] |
| --- | --- | --- | --- | --- | --- | --- | --- | --- | --- | --- | --- | --- | --- | --- | --- | --- | --- | --- |
| hAb006LH3L1 (antibody, human IgG1, V domains shown, Humanized F3.38.7; VH H3 + VL L1; expressed as human IgG1) VH: EVQLVQSGAEVKKPGSSVKVSCKASGYTFTDYEIHWVRQAPGQGLEWMGAIDPKTGNTAYNQKFMGRVTLTADKSTSTAYMELSSLRSEDTAVYYCTRYFSFAYWGQGTLVTVSS VL: DIVMTQTPLSLPVTPGEPASISCRSSQTFVHSNGNTYLQWYLQKPGQSPQLLIYKVSNRFSGVPDRFSGSGSGTDFTLKISRVEAEDVGVYYCFQGSHVPYTFGQGTKLEIK | 0.929 | 4920 | 0.154 | 0.287 | 0.819 | 1.65 | 2.06 | 2.2 | 2.25 | 2.33 | – | – | – | – | – | – | – | – |
| hAb006LH3L1c (antibody, human IgG1, V domains shown, Humanized F3.38.7; VH H3 + VL L1c; expressed as human IgG1) VH: EVQLVQSGAEVKKPGSSVKVSCKASGYTFTDYEIHWVRQAPGQGLEWMGAIDPKTGNTAYNQKFMGRVTLTADKSTSTAYMELSSLRSEDTAVYYCTRYFSFAYWGQGTLVTVSS VL: DIVMTQTPLSLPVTPGEPASISCRSSQTFVHSNRNTYLQWYLQKPGQSPQLLIYKVSNRFSGVPDRFSGSGSGTDFTLKISRVEAEDVGVYYCFQGSHVPYTFGQGTKLEIK | 1.16 | 18000 | – | – | – | – | – | – | – | – | 0.071 | 0.102 | 0.265 | 0.756 | 1.3 | 1.46 | 1.44 | 1.36 |
| hAb007LH1L1 (antibody, human IgG1, V domains shown, Humanized F3.81.19; VH H1 + VL L1; expressed as human IgG1) VH: EVQLVQSGAEVKKPGSSVKVSCKASGYTFSDYEMHWVRQAPGQGLEWMGTIDPETGNTAYNQKFKGRVTITADKSTSTAYMELSSLRSEDTAVYYCTRPYSLTYWGQGTLVTVSS VL: DIVMTQTPLSLPVTPGEPASISCRSSQSFVHSNGDTYLQWYLQKPGQSPQLLIYKVSNRFSGVPDRFSGSGSGTDFTLKISRVEAEDVGVYYCFQGSHVPYTFGQGTKLEIK | 2.02 | 6440 | 0.109 | 0.17 | 0.496 | 1.36 | 2.14 | 2.42 | 2.38 | 2.43 | – | – | – | – | – | – | – | – |
| hAb007LH1L1c (antibody, human IgG1, V domains shown, Humanized F3.81.19; VH H1 + VL L1c; expressed as human IgG1) VH: EVQLVQSGAEVKKPGSSVKVSCKASGYTFSDYEMHWVRQAPGQGLEWMGTIDPETGNTAYNQKFKGRVTITADKSTSTAYMELSSLRSEDTAVYYCTRPYSLTYWGQGTLVTVSS VL: DIVMTQTPLSLPVTPGEPASISCRSSQSFVHSNADTYLQWYLQKPGQSPQLLIYKVSNRFSGVPDRFSGSGSGTDFTLKISRVEAEDVGVYYCFQGSHVPYTFGQGTKLEIK | 4.61 | 18200 | – | – | – | – | – | – | – | – | 0.052 | 0.064 | 0.098 | 0.25 | 0.718 | 1.09 | 1.45 | 1.29 |
| hAb007LH1L1e (antibody, human IgG1, V domains shown, Humanized F3.81.19; VH H1 + VL L1e; expressed as human IgG1) VH: EVQLVQSGAEVKKPGSSVKVSCKASGYTFSDYEMHWVRQAPGQGLEWMGTIDPETGNTAYNQKFKGRVTITADKSTSTAYMELSSLRSEDTAVYYCTRPYSLTYWGQGTLVTVSS VL: DIVMTQTPLSLPVTPGEPASISCRSSQSFVHSNVDTYLQWYLQKPGQSPQLLIYKVSNRFSGVPDRFSGSGSGTDFTLKISRVEAEDVGVYYCFQGSHVPYTFGQGTKLEIK | 10.4 | 15000 | – | – | – | – | – | – | – | – | 0.049 | 0.05 | 0.058 | 0.104 | 0.248 | 0.732 | 1.17 | 0.921 |
| hAb007LH1L1d (antibody, human IgG1, V domains shown, Humanized F3.81.19; VH H1 + VL L1d; expressed as human IgG1) VH: EVQLVQSGAEVKKPGSSVKVSCKASGYTFSDYEMHWVRQAPGQGLEWMGTIDPETGNTAYNQKFKGRVTITADKSTSTAYMELSSLRSEDTAVYYCTRPYSLTYWGQGTLVTVSS VL: DIVMTQTPLSLPVTPGEPASISCRSSQSFVHSNSDTYLQWYLQKPGQSPQLLIYKVSNRFSGVPDRFSGSGSGTDFTLKISRVEAEDVGVYYCFQGSHVPYTFGQGTKLEIK | 6.28 | 18200 | – | – | – | – | – | – | – | – | 0.059 | 0.057 | 0.101 | 0.16 | 0.503 | 1.1 | 1.34 | 1.31 |
| hAb006LH3L1e (antibody, human IgG1, V domains shown, Humanized F3.38.7; VH H3 + VL L1e; expressed as human IgG1) VH: EVQLVQSGAEVKKPGSSVKVSCKASGYTFTDYEIHWVRQAPGQGLEWMGAIDPKTGNTAYNQKFMGRVTLTADKSTSTAYMELSSLRSEDTAVYYCTRYFSFAYWGQGTLVTVSS VL: DIVMTQTPLSLPVTPGEPASISCRSSQTFVHSNVNTYLQWYLQKPGQSPQLLIYKVSNRFSGVPDRFSGSGSGTDFTLKISRVEAEDVGVYYCFQGSHVPYTFGQGTKLEIK | 2.06 | 15800 | – | – | – | – | – | – | – | – | 0.06 | 0.085 | 0.187 | 0.592 | 1.23 | 1.36 | 1.44 | 1.32 |

Further binders by falling EC50 [1], results first:

| EC50 [1] [nM] | Max MFI [1] [MFI] | OD450 at 0.0008 nM [2] [OD450] | OD450 at 0.004 nM [2] [OD450] | OD450 at 0.02 nM [2] [OD450] | OD450 at 0.11 nM [2] [OD450] | OD450 at 0.53 nM [2] [OD450] | OD450 at 2.67 nM [2] [OD450] | OD450 at 13.33 nM [2] [OD450] | OD450 at 66.66 nM [2] [OD450] | OD450 at 0.0004 nM [2] [OD450] | OD450 at 0.002 nM [2] [OD450] | OD450 at 0.011 nM [2] [OD450] | OD450 at 0.056 nM [2] [OD450] | OD450 at 0.28 nM [2] [OD450] | OD450 at 1.39 nM [2] [OD450] | OD450 at 6.94 nM [2] [OD450] | OD450 at 34.72 nM [2] [OD450] | Binder |
| --- | --- | --- | --- | --- | --- | --- | --- | --- | --- | --- | --- | --- | --- | --- | --- | --- | --- | --- |
| 6.47 | 6070 | 0.099 | 0.137 | 0.341 | 1.07 | 1.98 | 2.34 | 2.38 | 2.46 | – | – | – | – | – | – | – | – | hAb007LH1L1b (antibody, human IgG1, V domains shown, Humanized F3.81.19; VH H1 + VL L1b; expressed as human IgG1) VH: EVQLVQSGAEVKKPGSSVKVSCKASGYTFSDYEMHWVRQAPGQGLEWMGTIDPETGNTAYNQKFKGRVTITADKSTSTAYMELSSLRSEDTAVYYCTRPYSLTYWGQGTLVTVSS VL: DIVMTQTPLSLPVTPGEPASISCRSSQSFVHSNRDTYLQWYLQKPGQSPQLLIYKVSNRFSGVPDRFSGSGSGTDFTLKISRVEAEDVGVYYCFQGSHVPYTFGQGTKLEIK |
| 1.98 | 17600 | – | – | – | – | – | – | – | – | 0.058 | 0.096 | 0.228 | 0.59 | 1.11 | 1.61 | 1.33 | 1.45 | hAb006LH3L1d (antibody, human IgG1, V domains shown, Humanized F3.38.7; VH H3 + VL L1d; expressed as human IgG1) VH: EVQLVQSGAEVKKPGSSVKVSCKASGYTFTDYEIHWVRQAPGQGLEWMGAIDPKTGNTAYNQKFMGRVTLTADKSTSTAYMELSSLRSEDTAVYYCTRYFSFAYWGQGTLVTVSS VL: DIVMTQTPLSLPVTPGEPASISCRSSQTFVHSNSNTYLQWYLQKPGQSPQLLIYKVSNRFSGVPDRFSGSGSGTDFTLKISRVEAEDVGVYYCFQGSHVPYTFGQGTKLEIK |
| 0.97 | 4670 | 0.155 | 0.309 | 0.878 | 1.93 | 2.36 | 2.42 | 2.36 | 2.5 | – | – | – | – | – | – | – | – | hAb006LH3L1b (antibody, human IgG1, V domains shown, Humanized F3.38.7; VH H3 + VL L1b; expressed as human IgG1) VH: EVQLVQSGAEVKKPGSSVKVSCKASGYTFTDYEIHWVRQAPGQGLEWMGAIDPKTGNTAYNQKFMGRVTLTADKSTSTAYMELSSLRSEDTAVYYCTRYFSFAYWGQGTLVTVSS VL: DIVMTQTPLSLPVTPGEPASISCRSSQTFVHSNANTYLQWYLQKPGQSPQLLIYKVSNRFSGVPDRFSGSGSGTDFTLKISRVEAEDVGVYYCFQGSHVPYTFGQGTKLEIK |
